Laboratory results as given in the nanobody polyreactivity screen of Harvey et al. (2022).

Experiment: yeast display, Sf9 membrane polyspecificity reagent, FACS + sequencing; frameworks hold sequencing errors
Procedure, shortened: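 Sorting gates, low and high (top ~1%), were placed on anti-HA fluorescence to track expression and on streptavidin fluorescence to track reagent binding. A clone's polyreactivity label is taken from the gate it came out of. The reagent was 10% biotinylated, detergent-solubilized Sf9 membrane, applied for 1 hour at 4 °C to galactose-induced yeast display cells.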

With “QFQLVESGGGLVQAGGSLRLSCASSGSIFWYYAMGWYRQAPGKERELVATITSGGRTDYADSVKGRFTISRDNAKNTVYLQMNSLKPEDTAVYFCAAGPRWRPRSYDYWGHGTQVTVSS” as the sequence, how does the “polyreactivity (PSR sort gate)” value read?
The value was “high polyreactivity”.

For “QFQLVESGGGLVQAGGSLRLSCASSGSIFYGNAMVCYRQAPGKERELVADIRWSGGSTYYADSVKGRFTISRDNAKNTVYLQMNSLKPEDTAVYYCAVRSPYRWRYASRYHEYDYWGQGTQVTVSS”, which “polyreactivity (PSR sort gate)” value is on record?
The value was “low polyreactivity”.

With “QFQLVESGGGLVQAGVSLRLSCAASGSIILVYAMGLYIQATGKETELVPAITTRGSSTYYADSVKGRFKISRDNAKNTYYLQMNSLKPEDTEVYYCAKEFPGTQGRGVTGFSGTALGYWGQGTKVTVSS” as the sequence, how does the “polyreactivity (PSR sort gate)” value read?
The value was “low polyreactivity”.

For “QFQLVESGGGLVQARGSLRLSCAASGITFKEYAMGWYRQAPGTERELVAAISKSGGSTYYADSVKGRFTISRDNAKNTVYLQMTSLKPEDTAVYYCAADYAEYEYGDYYWGQGTQVTVSS”, which “polyreactivity (PSR sort gate)” value is on record?
The value was “low polyreactivity”.

With “QFQLVESGGGLVQEGGSLRLSCAASGRTLAKNAMGWYRQAPGKEREFVAAISRRGGSTYYADSVKGRFTISRDYAKYTVYLQLNSLKREDTAVYYCARASRQGYYQLSYDEFDYWGQGTQVTVSS” as the sequence, how does the “polyreactivity (PSR sort gate)” value read?
Its value is “high polyreactivity”.

Which “polyreactivity (PSR sort gate)” value does the source give for “QFQLVESGGRLVQAGGSLRLSCAASGFIFWYNAMGWYRQAPGKEREFVAAISSGGSTTYADSVKGRFTISRDNAKNTVYLQMNSLKPEDTAVSYCAAGSYDYDYWGQGTQVTVSS” here?
Its value is “low polyreactivity”.

Which “polyreactivity (PSR sort gate)” value does the source give for “QFQLVESGRGLVQAGGGLRLSCAASGLTFGYYTMGWYRQAPGKERELVAAINYSGGSTYYADSVKGRFTISRDNAKNTVYLQMNCLKPEDSAVYYCAAEGPVYTTYEYWGQGNQVTVSS” here?
The value was “low polyreactivity”.

Which “polyreactivity (PSR sort gate)” value does the source give for “QFQLVESGRGLVQAGGSLRLSCAASGNTFGPYAMGWYRQAPGKERELVAAISSGGSTNYADSVKGRFTISRDNAKNTVYLQMNSLKPEDTAVYYCAAPYRSYVRYKYDYWGQGTLVTVSS” here?
The value was “low polyreactivity”.

With “QFQLVESGRGLVQAGGSLRLSCAASGSIFYSYAMGRYRQAPGKEREFVATISDSSGSTYYADSVKGRFTISRDNAKNTVYLQMNSMIPEDTAVYYCATTDSYGYYGYGDWGQGTQVTVSS” as the sequence, how does the “polyreactivity (PSR sort gate)” value read?
Its value is “low polyreactivity”.

With “QFQLVESRGGLVQAGGSLRLSCAASGFIFTHYAMGWYRQAPGKERELVAAITRRGGDTHYADSVKGRFTISRDNPKNTVYLQMNSLKPEDTAVYYSNAKRYSWGYYPAFDYWGHGTQVTVSS” as the sequence, how does the “polyreactivity (PSR sort gate)” value read?
The value was “high polyreactivity”.

With “QFQLVESVGGLVQAGGILRLSCAASGRNYNSYAMGWYRKAPGKERELVAAISRTGASTYYSDSVKGRFTISRDNAKNTVYLQMNSLKPEDTAVYYCAADANSGDGYYWGQGTQVTVSS” as the sequence, how does the “polyreactivity (PSR sort gate)” value read?
Its value is “high polyreactivity”.

With “QFQLVQSGGGLVQAGGSLRLSCAASGFILEPNAVGWYRQAPGKERELVATISYSGGGTYYADSVKGRFTISRDNAKNTVYLQLNCLKPEDTAVYYCAVDWYYYVWWYDYWGQGTHVTVSS” as the sequence, how does the “polyreactivity (PSR sort gate)” value read?
The value was “high polyreactivity”.

Which “polyreactivity (PSR sort gate)” value does the source give for “QFQPVESGGGLVQAGGSLRLSCAASGFTFYRYAMGWYRPAHGKERELVAAITFSGSSTYYADSVKGRFTISRDNAKNTVYLQMNSLKEEDTAVYYCAAGGSFWYFSPRYGYWGQGTQVTVSS” here?
The value was “high polyreactivity”.

For “QGHLVESGGGLVHAGGSLRLSCAASGRIFDVNAMGWYRQAPWKERELVAAISSGGNTKYADSVKGRFTISRDNAKNTVYLQMNSLKPEDTAVYYCIADGKAGGDYDYWGQGTQVTVSS”, which “polyreactivity (PSR sort gate)” value is on record?
Its value is “low polyreactivity”.

Which “polyreactivity (PSR sort gate)” value does the source give for “QGQHVDSGGVLVQAGGSLRLSCAASGITVYLYAMGWYRPAPGKEREMVATISRSGGSTYADSVKGRFTISRDNAKNTVYLQMYSLKPEDSAVYYCNADVLSTGYIAYDYWGQGTQVTVSS” here?
Its value is “low polyreactivity”.

For “QGQLEESGGGLVQAGGSLRLSCAASGFIFGGNDMGWYRQAPGKERELVAAISKSGGRTYYADSVKGRFTISRDNAKNTVYLQMNSLKPEDTAVYYCAAVPGRTAEDYGEDYWGQGTQVTVSS”, which “polyreactivity (PSR sort gate)” value is on record?
Its value is “high polyreactivity”.

With “QGQLEESGGGLVQAGGSLRLSCAAYGRIFYEYAMGLYRQAPGKERELVAISTAGCNTYYADSVKGRFTISRDNGKNTDYLQMNILKPEDTAVYYCAARLQYYPYYYWGQGTQVTVSS” as the sequence, how does the “polyreactivity (PSR sort gate)” value read?
The value was “high polyreactivity”.

With “QGQLGESGGGLVQAGGSLRLSCAASGRIFNCYGMGWYRQAPGKERELVATISKSSDITYYADSVKGRFTISRDIAKNNVYLQMNSLRPEDTAVYYCAAKVRQWRQGSYSSQYDYWGQGTQVTVSS” as the sequence, how does the “polyreactivity (PSR sort gate)” value read?
The value was “high polyreactivity”.

Which “polyreactivity (PSR sort gate)” value does the source give for “QGQLGESGGGLVQAGGSLRLSCAASGSIFPEYDMGWYRQAPGNERELDAAISWSGGSTYYADSVKGRFTISRANAKNTVSLQRNSLKPVDTAVYYCNRVPSWRIDYDYWGQGTQVSVSS” here?
The value was “low polyreactivity”.

For “QGQLVESGAGLVQAGGSLRLSCAASGITLHGYVMGWYRQAPGKETELVAAITSSGGRTYYADSVKGRFTISRDNAKNTVYLQMNRLKPVDTAVYYCAARIYYYAFSGYYWGQGTQVTVSS”, which “polyreactivity (PSR sort gate)” value is on record?
Its value is “high polyreactivity”.

Which “polyreactivity (PSR sort gate)” value does the source give for “QGQLVESGGGLGQAGGTLRLSCAASGFTFSFYAMGWYRQAPGKERELVAAISWSGGSTYYADSVKGRFTISRDNAKNTVYLQMNSLKPEDTAVYYCAAKLLYVGRYGYWGHGTQVTVSS” here?
The value was “high polyreactivity”.

Which “polyreactivity (PSR sort gate)” value does the source give for “QGQLVESGGGLLQAGGSLSLSCAATGFTFTENAMGWYRQEPGKEREFVAYISSSGDSTYYSDSVKGRFTISRDNAKNTVYLQMNSLKPEDTAVYYCYRDLVYDYYYVPQPSRFDYWGQGTQVTLSS” here?
The value was “high polyreactivity”.

Which “polyreactivity (PSR sort gate)” value does the source give for “QGQLVESGGGLVQAGGSLLLICAASGGTFLTYAMGWYRQAPGKERELVAAITSGGSTKYADSVKGRFTISRDNAKNTVYLQMNSLKPEDTAVYYCAADSVRDYVLWWAYSRSDYWGQGTQVTVSS” here?
The value was “low polyreactivity”.

Which “polyreactivity (PSR sort gate)” value does the source give for “QGQLVESGGGLVQAGGSLRLKCAASVFTFQFYDMGWYRQAPGKEMEFVATITWRAGSTYYADSVKGRFTISRDNAKNTVYLQMNSLKPEDTAVYYCIADYYRHSLDYDYVGYDYWGQGTQVTVSS” here?
Its value is “low polyreactivity”.

Which “polyreactivity (PSR sort gate)” value does the source give for “QGQLVESGGGLVQAGGSLRLSCAASGFTFAPNAMAWYRQAPGKERELVAAISSASSTYYADSLKGRFTISRDNAKNTVYLQMNSLKPEDTAVYYCAAREGWGFYYWGQGTQVTVSS” here?
The value was “high polyreactivity”.

For “QGQLVESGGGLVQAGGSLRLSCAASGFTFDYYAMGWYRQATGKEREFVAAISSRGDDTYYADSVKGRFTISRDNAKNTVYLQMNSLKPEDTAVYYCAALDPWKPEYDYWGQGTQVTLSS”, which “polyreactivity (PSR sort gate)” value is on record?
Its value is “high polyreactivity”.

Which “polyreactivity (PSR sort gate)” value does the source give for “QGQLVESGGGLVQAGGSLRLSCAASGFTFNYYAMGWSRQAPGKERELVAAISWRGGSTSYADSVKGRFTISRDNAKNTVYLQMNSLKPEDTAVYYCNAGYSGIYYFAGDYWGQGTQVTVSS” here?
Its value is “high polyreactivity”.

Which “polyreactivity (PSR sort gate)” value does the source give for “QGQLVESGGGLVQAGGSLRLSCAASGFTFQYYAMGWYRQAPGKDRELVAALSSSGGRTFYADSVKGRFTISRDNAKNTVYLQMNSLKAEDTAVYYCAAVWYGFLYYYWGQGTQVTVSS” here?
The value was “high polyreactivity”.

Which “polyreactivity (PSR sort gate)” value does the source give for “QGQLVESGGGLVQAGGSLRLSCAASGFTFSYNVMGWYRQAPGKERELVPAINWSGGRTYYADSVKGRFTISRDNAKNTVYLQMNSLKPEDTAVYYCAARVYRGTARLIYDYWGQGTQVTVSS” here?
Its value is “high polyreactivity”.

With “QGQLVESGGGLVQAGGSLRLSCAASGFTFYYNAMGWYRQAPGQERELVAAISTRGGNTYYADSVKGRFTISRDNAKNTVYLQMNSLKPEDTAVYYCARKIRREGRYDYWGQGTQVTVSS” as the sequence, how does the “polyreactivity (PSR sort gate)” value read?
Its value is “high polyreactivity”.

With “QGQLVESGGGLVQAGGSLRLSCAASGGTFEYNTMGWYRQAPGKERELVAAIRSSTVRTYYADSVKGRFTISRDNAKNTVYLQMNSLKPEDTAVYYCAATRYRKYWGQGTQVTVTS” as the sequence, how does the “polyreactivity (PSR sort gate)” value read?
The value was “high polyreactivity”.

With “QGQLVESGGGLVQAGGSLRLSCAASGIIFTANVMGWYRQAPGKERELVAAITRGGNTYYADSVKGRFTISRDNAKNTVYLQMNSLKPEDTAVYYCAAADYTTPVPYGRKGFDYWGQGTQVTVSS” as the sequence, how does the “polyreactivity (PSR sort gate)” value read?
Its value is “low polyreactivity”.

For “QGQLVESGGGLVQAGGSLRLSCAASGLIFYPNGMGWYREAPGKERELVAAITYSDGSTYYADSVKGRFTISRDNAKNTVYLQMNSLKAEDTAVYYCNRVTRWTYNYWGQGTQVTVSS”, which “polyreactivity (PSR sort gate)” value is on record?
Its value is “high polyreactivity”.

With “QGQLVESGGGLVQAGGSLRLSCAASGLTFKYYTMGWYRQAPGKEMELVAAINWSGASTYADSVKGRFTISRDNAKNTVYLQMNSLKPEDTAVYYCAADSPSWAPVREYDFWGQGTQVTVSS” as the sequence, how does the “polyreactivity (PSR sort gate)” value read?
The value was “low polyreactivity”.

Which “polyreactivity (PSR sort gate)” value does the source give for “QGQLVESGGGLVQAGGSLRLSCAASGNTFWYYAMGWYRQAPGKEREVVATISSSGGSTSYAHSVKGRFTISRDNAKNTVYLQMNSLKPVDTAVYYCAKPIRYFAAYPLTKGYYYWGQCTQVTVSS” here?
Its value is “high polyreactivity”.

For “QGQLVESGGGLVQAGGSLRLSCAASGRIVGPNTMGWSRQAPGKERELVAAISSGGGTYYADSVKGRFTISRDNAKNTVYLQMNSLKPEDTAVYYCAADYTTLKLYYWFDYWGQGTHVTVSS”, which “polyreactivity (PSR sort gate)” value is on record?
Its value is “low polyreactivity”.

For “QGQLVESGGGLVQAGGSLRLSCAASGRTFSVNDMGWYRQAPGKERELVAAMSFSGGRTYYADSVKGRFTISRDNAKNTVYLQMNSLKPEDTAVYYCAADIRGYDYWGQGTQVTVSS”, which “polyreactivity (PSR sort gate)” value is on record?
Its value is “high polyreactivity”.

For “QGQLVESGGGLVQAGGSLRLSCAASGSIFPDYAMGWYRQAPGKERELVAAITWRDDSTYYADSVKGRFTISRDNAKNTVYLQMNSLKPEDTAVYYCIASALDPLYAKDDYWGQGTQVTVSS”, which “polyreactivity (PSR sort gate)” value is on record?
Its value is “low polyreactivity”.

With “QGQLVESGGGLVQAGGSLRLSCAASGSIFPYNDMGWYRQAPRKERELFAAINSDGSTDYADSVKGRFTISRDNAKNTVYLLMKSLKPEDTAVYDCNGDYVATFLSPPTSVSYGYWGQVTQVTVSS” as the sequence, how does the “polyreactivity (PSR sort gate)” value read?
Its value is “low polyreactivity”.

For “QGQLVESGGGLVQAGGSLRLSCAASGSIFYRNAMGWYRQAPGKERELVAAISYSGGSTYYADSVKGRFTISRDNAKNTVYLQMNSLKPEDTAVYYCAKDYPTPISDYSRYYGYGYWGQGTQVTVSS”, which “polyreactivity (PSR sort gate)” value is on record?
The value was “low polyreactivity”.

Which “polyreactivity (PSR sort gate)” value does the source give for “QGQLVESGGGLVQAGGSLRLSCAASGSTFPTNSMGWYRPAPGNDRELVAAITGGASTYYADSVKGRFTISRDNAKNTVYLQMNSLKPEDTAVYYCAADDSWFYYGYGYWGQGTQVTVSS” here?
The value was “low polyreactivity”.

With “QGQLVESGGGLVQAGGSLRLSCAASGTFSPYAMGWYRPAPGKERELVAVITSNTGRTYADSVKGRFTISRDNAKNTVYLQMNSLKPEDTAVYYCASRSTYRHWYRTGSRFDYWGQGTQVTVSS” as the sequence, how does the “polyreactivity (PSR sort gate)” value read?
Its value is “low polyreactivity”.

Which “polyreactivity (PSR sort gate)” value does the source give for “QGQLVESGGGLVQAGGSLRLSCAASGYIFNPNAMGWYRQGPGKERDLFAGITWRGDRTYYADSVKGRFTISRDNAKNTVYLQMNCLKPEDTAVYYCNGAGADRWSYSSNIRRYYYWGHGTQVTVSS” here?
The value was “high polyreactivity”.
